Data reported in US20160185859A1 (Pfizer, published 2016).
Positions count from the first letter of the chain named. In names and notes the source's numbering stands. Where two headings read alike, the source gives them in different places.

Tests used:
[1] = biological target: human 5T4 antigen expressed on cells (PC14PE6 cells; MDAMB435/5T4 cells) (human) (UniProt Q13641); assay: FACS of PC14PE6 cells; control
[2] = biological target: T1, human 5T4 antigen expressed on cells (PC14PE6 cells; MDAMB435/5T4 cells) (human, UniProt Q13641 32-420); assay: FACS of PC14PE6 cells
T1 construct: PC14PE6 are human non-small cell lung cancer cells; also called 5T4-expressing PC14PE6 cells
T1 sequence: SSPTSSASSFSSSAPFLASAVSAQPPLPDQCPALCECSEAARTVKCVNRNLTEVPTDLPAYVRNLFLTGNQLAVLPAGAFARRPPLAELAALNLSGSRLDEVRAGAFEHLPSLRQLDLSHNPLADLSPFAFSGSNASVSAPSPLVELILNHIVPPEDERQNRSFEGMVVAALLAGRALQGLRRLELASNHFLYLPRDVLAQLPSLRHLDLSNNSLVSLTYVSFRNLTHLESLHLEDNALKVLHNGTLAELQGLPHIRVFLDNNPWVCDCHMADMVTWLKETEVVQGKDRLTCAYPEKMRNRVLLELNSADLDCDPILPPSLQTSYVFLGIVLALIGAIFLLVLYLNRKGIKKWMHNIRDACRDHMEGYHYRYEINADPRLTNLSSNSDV

human 5T4 antigen [3] = biological target: T2, human 5T4 antigen (human, UniProt Q13641 32-355, limits assumed); assay: BIACORE (SPR); human 5T4 antigen immobilized on CM5 chip
T2 sequence: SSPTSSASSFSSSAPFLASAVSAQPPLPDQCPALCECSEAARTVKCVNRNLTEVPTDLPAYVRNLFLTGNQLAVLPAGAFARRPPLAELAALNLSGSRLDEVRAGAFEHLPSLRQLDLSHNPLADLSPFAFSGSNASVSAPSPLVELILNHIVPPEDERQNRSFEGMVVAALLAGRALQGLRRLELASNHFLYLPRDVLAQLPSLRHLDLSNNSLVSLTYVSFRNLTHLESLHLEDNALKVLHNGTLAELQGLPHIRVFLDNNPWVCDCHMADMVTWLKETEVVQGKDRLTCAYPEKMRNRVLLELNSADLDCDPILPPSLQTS
Protocol: (§1) To assess the binding specificity and affinity of the A1, A2, and A3 antibodies, BIACORE® analysis was performed using human 5T4 antigen immobilized on a CM5 chip. BIACORE® technology utilizes changes in the refractive index at the surface layer upon binding of the antibody to the 5T4 antigen immobilized on the layer. Binding is detected by surface plasmon resonance (SPR) of laser light refracting from the surface. Analysis of the signal kinetics on rate and off rate allows discrimination between non-specific and specific interactions. The H8 anti-5T4 antibody was used as a control. H8 is a hybridoma-generated monoclonal mouse IgG1 antibody described in PCT International Publication No. WO 98/55607 and in Forsberg et al. (1997) J. Biol. Chem. 272(19):[…].

human 5T4 antigen [4] = biological target: T2, human 5T4 antigen; assay: BIACORE; human 5T4 chip saturated with first antibody H8 (competitor)
Protocol: Epitope mapping of the H8, A1, A2, and A3 antibodies was also performed using BIACORE® using a CM5 chip with bound human 5T4 antigen. The chip was saturated with H8, A1, A2, or A3 antibody, and a first response was measured. The chip was then saturated with a second antibody from among the H8, A1, A2, and A3 antibodies, and a second response was measured. For multiple experiments, the chip was regenerated by dissociation of the bound antibodies in 10 mM glycine, pH 1.5, followed by a buffer wash. The percentages shown are the response units measured upon binding by a second antibody directly to the CM5 chip divided by the response units measured upon binding of the second antibody to a CM5 chip saturated with a first antibody.

human 5T4 antigen [5] = biological target: T2, human 5T4 antigen; assay: BIACORE (SPR); human 5T4 antigen immobilized on CM5 chip; remark: listed apart in the source
Protocol: as §1
To assess the binding specificity and affinity of the chimeric and humanized H8, A1, A2, and A3 antibodies, BIACORE® analysis was performed using human 5T4 antigen immobilized on a CM5 chip. See Example 2.

[6] = biological target: chimpanzee 5T4 ectodomain Fc (chimpanzee; human, UniProt P01857 99-330 = IgG part); assay: ELISA; 5T4 ectodomain/Fc fusion protein from transiently transfected COS-1 cells; given as ED50
Protocol: (§2) To assay binding of anti-5T4 antibodies, 5T4 ectodomain/Fc fusion proteins were transiently transfected into COS-1 cells, and ELISA assays were performed. Non-relevant human IgG4 and IgG1 antibodies were used as controls.

human 5T4 ectodomain Fc = biological target: T3, human 5T4 ectodomain Fc (human, UniProt Q13641 32-355); assay: as above
T3 construct: also called human 5T4 ectodomain Fc fusion protein; Human 5T4 Ectodomain/Fc Fusion; not shown: Fc constant regions from human IgG1
T3 sequence: T2 sequence
Protocol: as §2

[7] = biological target: T4, cynomologous monkey 5T4 ectodomain Fc (cynomologous monkey; human, UniProt Q4R8Y9 32-355); assay: as above
T4 construct: not shown: Fc constant regions from human IgG1
T4 chain: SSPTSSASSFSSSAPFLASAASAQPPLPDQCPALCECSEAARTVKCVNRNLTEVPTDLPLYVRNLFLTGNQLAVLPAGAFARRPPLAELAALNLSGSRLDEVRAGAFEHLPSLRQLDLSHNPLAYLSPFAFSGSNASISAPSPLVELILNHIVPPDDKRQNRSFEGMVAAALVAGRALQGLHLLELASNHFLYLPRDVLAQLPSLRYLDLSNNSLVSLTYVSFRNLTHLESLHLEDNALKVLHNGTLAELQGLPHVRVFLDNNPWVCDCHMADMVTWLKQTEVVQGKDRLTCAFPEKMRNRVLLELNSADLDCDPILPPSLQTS
Protocol: as §2

human 5T4 antigen [8] = biological target: T2, human 5T4 antigen; assay: BIACORE; human 5T4 chip saturated with first antibody humanized H8 (competitor); 19 s after injection of second antibody
human 5T4 antigen [9] = biological target: T2, human 5T4 antigen; assay: BIACORE; human 5T4 chip saturated with first antibody humanized H8 (competitor); 75 s after injection of second antibody
human 5T4 antigen [10] = biological target: T2, human 5T4 antigen; assay: BIACORE; human 5T4 chip saturated with first antibody humanized H8 (competitor); 150 s after injection of second antibody
human 5T4 antigen [11] = biological target: T2, human 5T4 antigen; assay: BIACORE; human 5T4 chip saturated with first antibody humanized H8 (competitor); 300 s after injection of second antibody
human 5T4 antigen [12] = biological target: T2, human 5T4 antigen; assay: BIACORE; human 5T4 chip saturated with first antibody humanized H8 (competitor); 600 s after injection of second antibody
human 5T4 antigen [13] = biological target: T2, human 5T4 antigen; assay: BIACORE; human 5T4 chip saturated with first antibody humanized H8 (competitor); 37.5 s after injection of second antibody
human 5T4 antigen [14] = biological target: T2, human 5T4 antigen; assay: ELISA; inhibition of biotinylated chimeric A1 antibody binding to human 5T4

Control (secondary Ab) (antibody)
Mean Cellular Flouresence [1]: 4

Control (murine IgG) (antibody)
Mean Cellular Flouresence [1]: 4

B1: murine anti-5T4 antibody A2 (antibody, V domains shown)
VH: QVQLQQSRPELVKPGASVKMSCKASGYTFTDYVISWVKQRTGQGLEWIGEIYPGSNSIYYNEKFKGRATLTADKSSSTAYMQLSSLTSEDSAVYFCAMGGNYGFDYWGQGTTLTVSS
VL: QIVLTQSPAIMSASLGERVTLTCTASSSVNSNYLHWYQQKPGSSPKLWIYSTSNLASGVPARFSGSGSGTSYSLTISSMEAEDAATYYCHQYHRSPLTFGAGTKLELK
notes: also called muA2
Mean Cellular Flouresence [2]: 7
Ka (human 5T4 antigen [3]): 6.5e+07 M⁻¹
Kd (human 5T4 antigen [3]): 15000 pM
koff (human 5T4 antigen [3]): 0.00087 s⁻¹
kon (human 5T4 antigen [3]): 56000 M⁻¹ s⁻¹
percentage response of second antibody following saturation with first antibody (human 5T4 antigen [4]): 99%

B2: chimeric A3 antibody (antibody, human IgG4, V domains shown)
VH: EVQLVESGGGLVQPKGSLKLSCAASGFTFNTYAMNWVRQAPGKGLEWVARIRSKSNNYATYYADSVKDRFTISRDDSQSMLYLQMNNLKTEDTAMYCCVRQWDYDVRAMNYWGQGTSVTVSS
VL: DIVMTQSHIFMSTSVGDRVSITCKASQDVDTAVAWYQQKPGQSPKLLIYWASTRLTGVPDRFTGSGSGTDFTLTISNVQSEDLADYFCQQYSSYPYTFGGGTKLEIK
notes: also called ChiA3; ChiA3 γ4
Ka (human 5T4 antigen [5]): ~5.4e+09 M⁻¹
Kd (human 5T4 antigen [5]): ≤ 180 pM
koff (human 5T4 antigen [5]): ≤ 1e-05 s⁻¹
kon (human 5T4 antigen [5]): ~54000 M⁻¹ s⁻¹
EC50 [6]: 200 pM
EC50 (human 5T4 ectodomain Fc): 200 pM
EC50 [7]: 230 pM
percentage of second antibody bound following saturation with first antibody (human 5T4 antigen [8]): 46.2%
percentage of second antibody bound following saturation with first antibody (human 5T4 antigen [9]): 58.4%
percentage of second antibody bound following saturation with first antibody (human 5T4 antigen [10]): 67.5%
percentage of second antibody bound following saturation with first antibody (human 5T4 antigen [11]): 76.2%
percentage of second antibody bound following saturation with first antibody (human 5T4 antigen [12]): 83.6%
percentage of second antibody bound following saturation with first antibody (human 5T4 antigen [13]): 51.2%

B3: murine anti-5T4 antibody A3 (antibody, V domains shown)
VH: B2 VH
VL: B2 VL
notes: also called muA3
Mean Cellular Flouresence [2]: 27
Ka (human 5T4 antigen [3]): 4.6e+08 M⁻¹
Kd (human 5T4 antigen [3]): 2200 pM
koff (human 5T4 antigen [3]): 5.2e-05 s⁻¹
kon (human 5T4 antigen [3]): 24000 M⁻¹ s⁻¹
percentage response of second antibody following saturation with first antibody (human 5T4 antigen [4]): 73%

B4: chimeric A3 antibody bearing C91Y mutation (antibody, V domains shown)
VH: B2 VH with C97Y
VL: B2 VL
notes: also called Chimeric A3 + C91Y; ChiA3+C91Y
Ka (human 5T4 antigen [5]): 1.7e+09 M⁻¹
Kd (human 5T4 antigen [5]): 590 pM
koff (human 5T4 antigen [5]): 1.6e-05 s⁻¹
kon (human 5T4 antigen [5]): 27000 M⁻¹ s⁻¹

B5: murine anti-5T4 antibody A1 (antibody, V domains shown)
VH: QIQLVQSGPELKKPGETVKISCKASGYTFTNFGMNWVKQGPGEGLKWMGWINTNTGEPRYAEEFKGRCAFSLETTASTAYLQINNLKNEDTATYFCARDWDGAYFFDYWGQGTTLTVSS
VL: SIVMTQTPKFLLVSAGDRVTITCKASQSVSNDVAWYQQKPGQSPKLLINFATNRYTGVPNRFTGSGYGTDFTFTISTVQAEDLALYFCQQDYSSPWTFGGGTKLEIK
Mean Cellular Flouresence [2]: 18
Ka (human 5T4 antigen [3]): 1.6e+09 M⁻¹
Kd (human 5T4 antigen [3]): 640 pM
koff (human 5T4 antigen [3]): 0.00013 s⁻¹
kon (human 5T4 antigen [3]): 200000 M⁻¹ s⁻¹
percentage response of second antibody following saturation with first antibody (human 5T4 antigen [4]): 109%

B6: chimeric A1 antibody bearing C67F mutation (antibody, V domains shown)
VH: B5 VH with C68F
VL: B5 VL
notes: also called Chimeric A1 + C67F; ChiA1+C67F
Ka (human 5T4 antigen [5]): 2.6e+09 M⁻¹
Kd (human 5T4 antigen [5]): 380 pM
koff (human 5T4 antigen [5]): 6.3e-05 s⁻¹
kon (human 5T4 antigen [5]): 170000 M⁻¹ s⁻¹

B7: huA1 VH v2.0 + huA1 VL v1.1 (antibody, V domains shown)
VH: EVQLVESGGGLVQPGGSLRLSCAASGYTFTNFGMNWVRQAPGKGLEWVAWINTNTGEPRYAEEFKGRFTISRDNAKNSLYLQMNSLRAEDTAVYYCARDWDGAYFFDYWGQGTLVTVSS
VL: DIVMTQSPDSLAVSLGERATINCKASQSVSNDVAWYQQKPGQPPKLLIYFATNRYTGVPDRFSGSGYGTDFTLTISSLQAEDVAVYYCQQDYSSPWTFGQGTKVEIK
notes: also called humanized A1 VH version 2.0 + humanized A1 VL version 1.1
IC50 (human 5T4 antigen [14]): 28000 pM

B8: huA1 VH v2.0 + huA1 VL v2.4 (antibody, V domains shown)
VH: B7 VH
VL: DIQMTQSPSSLSASVGDRVTITCKASQSVSNDVAWYQQKPGKAPKLLIYFATNRYTGVPSRFSGSGYGTDFTLTISSLQPEDFATYYCQQDYSSPWTFGQGTKVEIK
IC50 (human 5T4 antigen [14]): 16000 pM

B9: huA1 VH v2.0 + huA1 VL v3.1 (antibody, V domains shown)
VH: B7 VH
VL: EIVMTQSPATLSLSPGERATLSCKASQSVSNDVAWYQQKPGQAPRLLIYFATNRYTGIPARFSGSGYGTDFTLTISSLQPEDFAVYYCQQDYSSPWTFGQGTKVEIK
IC50 (human 5T4 antigen [14]): 27000 pM
